Reference: article PMC5496667

Biological target: GFP-tagged Tubulin (fusion construct of Tubulin and GFP)
Assay: FRET or BRET

B1: DsRed-tagged Ccdc181 (FACS-FRET construct) (natural protein)
chain: MDEDKDIDSKESGEYEDDFEKDLEWLINDKEKSNGSTIEMACKKEDDLDQVLKENETETELGQQLSDPDNSPKDEALPRRNDFISVPSIQPLDPISDSDSENSFQDSKPENQKDLEDEEDEEVRRYIMEKIIEANKLLQTQEPVNDKRERKLKFKDKLVDLEVPPLEDSDTCKALLENETNMSGKLSQLCISGDLEQESVLVSVTDGSCEENDRKILVERDGKFELMNLQDIESQGFLPPISSANSVEHESSQLPLRAPNPSVGGIKKEESEAKGHVLPISPAGEPLAQVPQLLPNPKNRPSSAANPDVTKKARRSNHRIQSAGVSPVTSTYCLSPRQKELQKQLERKREKLKREEEQRKLEEENEKKKENEMVFKAWLQKKREQVIEMRRVQRAKQIEDMSSRQVNRDPQQAFRLWLKKKHEEQMKERKTEELRKQEECLFFLRGTEGRERAFRQWLRRKQIEKIAEQQAVKERARQLRLEARRSKQLQSSLYSIPEAKAFRFTDHYN
percent FRET positive cells: 29.4%
